± gives the uncertainty stated by the source.
B1: Myocardin-related transcription factor A, residues 341 to 383; numbered along this chain, Q969V6 (parent)
chain: GALPANLDDMKVAELKQELKLRSLPVSGTKTELIERLRAYQDQ

Variants of: B1
Experiment: abundance fitness (aPCA) (normalised: wild type 0, dead -1); higher = more abundant; growth selection in yeast, the domain comes from the species named
Settings: Homo sapiens

Variant | abundance fitness
GALPANLDDMHVAELKQELKLRSLPVSGTKTELIERLRAYQDQ [K11H] | -0.154 ± 0.098
GALPANLDDMEVAELKQELKLRSLPVSGTKTELIERLRAYQDQ [K11E] | 0.047 ± 0.074
GALPANLDDMQVAELKQELKLRSLPVSGTKTELIERLRAYQDQ [K11Q] | -0.161 ± 0.13
GALPANLDDMVVAELKQELKLRSLPVSGTKTELIERLRAYQDQ [K11V] | -0.055 ± 0.068
GALPANLDDMCVAELKQELKLRSLPVSGTKTELIERLRAYQDQ [K11C] | -0.126 ± 0.094
GALPANLDDMRVAELKQELKLRSLPVSGTKTELIERLRAYQDQ [K11R] | -0.079 ± 0.059
GALPANLDDMMVAELKQELKLRSLPVSGTKTELIERLRAYQDQ [K11M] | -0.275 ± 0.13
GALPANLDDMKVAEIKQELKLRSLPVSGTKTELIERLRAYQDQ [L15I] | 0.119 ± 0.22
GALPANLDDMKVAEDKQELKLRSLPVSGTKTELIERLRAYQDQ [L15D] | -0.369 ± 0.18
GALPANLDDMKVAEFKQELKLRSLPVSGTKTELIERLRAYQDQ [L15F] | -0.466 ± 0.23
GALPANLDDMKVAECKQELKLRSLPVSGTKTELIERLRAYQDQ [L15C] | -0.999 ± 0.27
GALPANLDDMKVAEQKQELKLRSLPVSGTKTELIERLRAYQDQ [L15Q] | -0.662 ± 0.12
GALPANLDDMKVAEEKQELKLRSLPVSGTKTELIERLRAYQDQ [L15E] | -0.604 ± 0.14
GALPANLDDMKVAEWKQELKLRSLPVSGTKTELIERLRAYQDQ [L15W] | -1.38 ± 0.15
GALPANLDDMKVAENKQELKLRSLPVSGTKTELIERLRAYQDQ [L15N] | -0.628 ± 0.22
GALPANLDDMKVAEGKQELKLRSLPVSGTKTELIERLRAYQDQ [L15G] | -0.558 ± 0.063
GALPANLDDMKVAEMKQELKLRSLPVSGTKTELIERLRAYQDQ [L15M] | -0.481 ± 0.27
GALPANLDDMKVAEAKQELKLRSLPVSGTKTELIERLRAYQDQ [L15A] | -0.336 ± 0.11
GALPANLDDMKVAEHKQELKLRSLPVSGTKTELIERLRAYQDQ [L15H] | -0.621 ± 0.21
GALPANLDDMKVAEKKQELKLRSLPVSGTKTELIERLRAYQDQ [L15K] | -0.508 ± 0.14

Variant | abundance fitness
GALPANLDDMKVAERKQELKLRSLPVSGTKTELIERLRAYQDQ [L15R] | -0.831 ± 0.14
GALPANLDDMKVAETKQELKLRSLPVSGTKTELIERLRAYQDQ [L15T] | -0.403 ± 0.13
GALPANLDDMKVAEVKQELKLRSLPVSGTKTELIERLRAYQDQ [L15V] | -0.092 ± 0.066
GALPANLGDMKVAELKQELKLRSLPVSGTKTELIERLRAYQDQ [D8G] | 0.183 ± 0.063
GALPANLTDMKVAELKQELKLRSLPVSGTKTELIERLRAYQDQ [D8T] | -0.129 ± 0.095
GALPANLKDMKVAELKQELKLRSLPVSGTKTELIERLRAYQDQ [D8K] | -0.018 ± 0.077
GALPANLVDMKVAELKQELKLRSLPVSGTKTELIERLRAYQDQ [D8V] | 0.048 ± 0.075
GALPANLSDMKVAELKQELKLRSLPVSGTKTELIERLRAYQDQ [D8S] | -0.124 ± 0.12
GALPANLCDMKVAELKQELKLRSLPVSGTKTELIERLRAYQDQ [D8C] | 0.176 ± 0.25
GALPANLEDMKVAELKQELKLRSLPVSGTKTELIERLRAYQDQ [D8E] | 0.261 ± 0.077
GALPANLMDMKVAELKQELKLRSLPVSGTKTELIERLRAYQDQ [D8M] | -0.125 ± 0.085
GALPANLQDMKVAELKQELKLRSLPVSGTKTELIERLRAYQDQ [D8Q] | 0.146 ± 0.15
GALPANLRDMKVAELKQELKLRSLPVSGTKTELIERLRAYQDQ [D8R] | 0.046 ± 0.06
GALPANLWDMKVAELKQELKLRSLPVSGTKTELIERLRAYQDQ [D8W] | 0.185 ± 0.071
GALPANLNDMKVAELKQELKLRSLPVSGTKTELIERLRAYQDQ [D8N] | -0.009 ± 0.38
GALPANLADMKVAELKQELKLRSLPVSGTKTELIERLRAYQDQ [D8A] | 0.19 ± 0.065
GALPANLDAMKVAELKQELKLRSLPVSGTKTELIERLRAYQDQ [D9A] | 0.203 ± 0.11
GALPANLDRMKVAELKQELKLRSLPVSGTKTELIERLRAYQDQ [D9R] | 0.135 ± 0.054
GALPANLDKMKVAELKQELKLRSLPVSGTKTELIERLRAYQDQ [D9K] | 0.404 ± 0.15
GALPANLDSMKVAELKQELKLRSLPVSGTKTELIERLRAYQDQ [D9S] | 0.159 ± 0.065

Variant | abundance fitness
GALPANLDCMKVAELKQELKLRSLPVSGTKTELIERLRAYQDQ [D9C] | 0.014 ± 0.1
GALPANLDEMKVAELKQELKLRSLPVSGTKTELIERLRAYQDQ [D9E] | 0.273 ± 0.077
GALPANLDTMKVAELKQELKLRSLPVSGTKTELIERLRAYQDQ [D9T] | 0.243 ± 0.11
GALPANLDGMKVAELKQELKLRSLPVSGTKTELIERLRAYQDQ [D9G] | 0.13 ± 0.062
GALPANLDVMKVAELKQELKLRSLPVSGTKTELIERLRAYQDQ [D9V] | 0.153 ± 0.079
GALPANLDLMKVAELKQELKLRSLPVSGTKTELIERLRAYQDQ [D9L] | -0.026 ± 0.07
GALPANLDQMKVAELKQELKLRSLPVSGTKTELIERLRAYQDQ [D9Q] | 0.085 ± 0.077
GALPANLDNMKVAELKQELKLRSLPVSGTKTELIERLRAYQDQ [D9N] | 0 ± 0.18
GALPANLDMMKVAELKQELKLRSLPVSGTKTELIERLRAYQDQ [D9M] | 0.019 ± 0.18
GALPANLDWMKVAELKQELKLRSLPVSGTKTELIERLRAYQDQ [D9W] | -0.139 ± 0.076
GALPANLDPMKVAELKQELKLRSLPVSGTKTELIERLRAYQDQ [D9P] | -0.416 ± 0.25
GALPANWDDMKVAELKQELKLRSLPVSGTKTELIERLRAYQDQ [L7W] | -0.429 ± 0.077
GALPANTDDMKVAELKQELKLRSLPVSGTKTELIERLRAYQDQ [L7T] | -0.136 ± 0.12
GALPANSDDMKVAELKQELKLRSLPVSGTKTELIERLRAYQDQ [L7S] | -0.47 ± 0.091
GALPANVDDMKVAELKQELKLRSLPVSGTKTELIERLRAYQDQ [L7V] | -0.199 ± 0.077
GALPANLDDMKVAELLQELKLRSLPVSGTKTELIERLRAYQDQ [K16L] | -0.408 ± 0.14
GALPANLDDMKVAELEQELKLRSLPVSGTKTELIERLRAYQDQ [K16E] | -0.052 ± 0.068
GALPANLDDMKVAELDQELKLRSLPVSGTKTELIERLRAYQDQ [K16D] | -0.714 ± 0.25
GALPANLDDMKVAELHQELKLRSLPVSGTKTELIERLRAYQDQ [K16H] | 0.123 ± 0.16
